Literature values, collected in article PMC13615496.

Target: PYL (Arabidopsis thaliana) (UniProt Q8VZS8)
UniProt Q8VZS8, sequence (Q8VZS8 2-221): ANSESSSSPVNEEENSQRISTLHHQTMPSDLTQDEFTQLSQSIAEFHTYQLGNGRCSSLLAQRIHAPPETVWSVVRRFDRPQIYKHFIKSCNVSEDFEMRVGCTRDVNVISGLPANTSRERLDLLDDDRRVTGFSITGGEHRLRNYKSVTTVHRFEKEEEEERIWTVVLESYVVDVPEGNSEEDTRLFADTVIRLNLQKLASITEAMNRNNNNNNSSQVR

For ABI (from UniProt P49597), the Kd is given as 52 µM.
